The values that follow come from patent US5840867.

B1: 15-mer GGTTGGTGTGGTU'GG (ssDNA)
DNA: GGTTGGTGTGGTTGG
modifications: 5-(1-pentynyl)uracil at position 13 [13 = 5-(1-pentynyl)uracil (dU analog written as T)]

Usually Ki stands for the equilibrium dissociation constant of an inhibitor or competing ligand from its target. A lower Ki goes with higher affinity.

For the data set, the target named is thrombin (UniProt P00734;P00734 P00734:328-363,P00734:364-622). Description: inhibition; fibrinogen clotting assay.
Molecule B1 displayed an inhibition constant Ki of 20 nM.

Turning to GGTTGGTGTGGTTGG (ssDNA, PS linkages between 13-14 and 14-15) [15-mer with 3' thioates GGTTGGTGTGGTT*G*G], affinity was put at a Ki of 40 nM.

With GGTTGGTGTGGTTGGGT (ssDNA, P(O)NH(CH2CH2OCH3) (MEA) linkages between 15-16 and 16-17) [17-mer with 3' MEA linkages GGTTGGTGTGGTTGG#G#T], the Ki was 35 nM.

As to GGTTGGTGTGGTTGG (ssDNA, dU at positions 3 and 12 [n positions 3,12 = modified dU]) [15-mer GG(dU)TGGTGTGG(dU)TGG], the Ki was found to be 80 nM. Compared with the last molecule, the Ki is about 2.3-fold higher.

As for GGTTGGTGTGGTTGG (ssDNA, dU at positions 7 and 9 [n positions 7,9 = modified dU]) [15-mer GGTTGG(dU)G(dU)GGTTGG], the inhibitory constant (Ki) was determined as 15 nM. This Ki is about 5.3-fold lower than that of the molecule before.

GGTTGGTGTGGTTGG (ssDNA, PS at all linkages) [15-mer all thioate] yielded an inhibition constant (Ki) of 280 nM.
